B1: STEAP1 (parent)
chain: WMLTRKQFGLLSFFFAVLHAIYSL
B2: ZBED2 (parent)
chain: FHLAPARAGHHPNQYATCRLCGRQ

Variants of: B1
Experiment: protein stability index of a GFP-peptide fusion (GPS, HEK-293T) (PSI 1-6); higher = more stable
Conditions: c terminus: a fixed tail appended
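Note: lentivirally expressed fusions sorted by FACS into six bins by GFP to DsRed ratio, PSI derived from sequencing read proportions per bin multiplied by bin number.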

Protein stability index of substitutions, site by site:
S23: L 1.27 | R 2.43 | T 1.55 | A 1.36 | V 1.94 | K 2.01 | Y 2.37 | I 1.92 | F 1.79 | C 1.75
F14: G 2.11 | S 2.82 | V 1.69 | A 3.09 | M 1.41 | D 3.4 | P 2.09 | C 2.35 | R 1.51 | Q 3.11 | K 2.49 | H 2 | E 3.11 | W 1.82
R5: S 2.07 | Q 2.21 | A 1.04 | G 2.29 | H 3.39 | D 1.96 | K 1.52 | E 2.03 | M 2.47 | Y 2.77 | P 2.2
W1: M 1.88 | T 2.75 | S 1.58 | A 1.91 | C 1.82 | P 2.13 | K 1.63 | D 2.04 | N 2.35 | R 2.01 | Q 1.85 | E 1.58
L18: A 2.43 | P 3.09 | Y 2.13 | S 1.86 | V 1.66 | W 1.74 | C 2.75 | E 3.98 | F 1.63 | Q 2.82 | G 2.66 | H 2.03 | I 2 | T 1.92
A20: N 2.02 | H 1.62 | G 2.13 | F 2.8 | D 2.62 | W 1.79 | R 1.73 | P 2.51 | Y 2.1 | C 2.18 | E 2.56 | K 1.78 | T 1.36 | I 1.88 | L 2.46
L11: W 1.72 | T 1.95 | R 1.51 | C 1.48 | P 1.57 | K 1.34 | S 1.62 | Y 2.31 | I 2.31 | D 2.23 | M 2.52
L3: P 2.27 | F 2.74 | C 3.54 | E 1.57 | G 1.76 | N 2.1 | Y 2.06 | S 1.66 | R 1.71 | A 1.73 | I 2.59 | V 1.52 | H 2.09 | W 1.73 | M 2.22
S12: G 1.75 | M 1.67 | P 3.09 | W 2.76 | Q 2.38 | C 1.88 | N 2.05 | H 1.94 | E 2.95 | A 2.05 | K 1.86 | Y 1.25 | R 2.57 | V 1.67 | T 1.84 | F 1.9
F13: Q 1.78 | G 2.25 | A 3.27 | I 2.11 | P 1.95 | C 2.02 | H 3.2 | R 2.44 | L 2.65 | K 2.38 | Y 1.95 | T 2.69 | W 1.67 | E 4.58
F8: M 1.94 | G 1.18 | C 1.67 | L 2.04 | T 3.12 | S 1.84 | N 1.73 | Y 1.84 | V 2.14 | D 2.31 | E 1.64 | H 2.16 | K 1.67 | I 1.5
Q7: V 3.1 | Y 2.28 | S 1.52 | F 1.47 | M 3.42 | P 1.45 | L 1.94 | E 1.21 | K 1.8 | T 2.17 | I 1.61 | N 2.23 | C 1.82 | G 1.78
A16: V 1.51 | H 1.76 | C 1.69 | M 1.13 | S 1.45 | D 2.07 | I 1.77 | K 1.46 | R 1.93 | E 1.67 | N 1.88 | Q 1.52 | L 1.64
V17: W 2.33 | N 4.05 | F 3.24 | T 2.33 | H 3.31 | Q 3.15 | L 1.7 | Y 2.99 | I 1.73 | M 2.85 | E 2.34 | S 2.07 | K 2.53 | A 2.25 | G 2.58
K6: C 2.16 | M 2.07 | H 3.26 | T 2.08 | E 2.56 | Y 3.86 | P 1.8 | R 1.88 | S 2.85 | V 3.54 | N 2.32
T4: N 1.99 | I 2.3 | K 2.13 | V 1.92 | A 1.28 | W 1.89 | H 1.6 | S 1.62 | C 1.8 | Q 2.35 | L 2.77 | E 1.1
Y22: Q 2.21 | S 1.63 | A 1.58 | G 2.2 | V 2.48 | K 2.29 | R 2.46 | F 1.56 | D 2.97 | H 2.1 | I 1.1 | L 1.79 | C 2.43 | N 1.34
L24: E 1.4 | H 1.83 | N 1.98 | G 2.74 | K 3.44 | P 2.08 | I 1.86 | W 2.13 | A 1.91 | C 2 | V 2.27 | S 2.14 | Y 2 | T 2.26
H19: E 1.65 | L 2.59 | G 2.77 | S 2.34 | K 2.16 | N 1.89 | V 3.14 | W 3.67 | F 2.76 | R 1.74 | C 2.94 | M 3.02 | A 3.76
L10: N 1.99 | F 1.85 | D 2.52 | K 1.73 | S 1.53 | Q 3.24 | G 2 | M 1.83 | H 2.09 | R 4.36 | P 1.33 | V 1.52 | I 2.05 | W 1.35 | C 1.98 | E 2.17 | Y 1.66
G9: T 1.25 | N 1.46 | Y 2.75 | D 3.04 | Q 2.07 | K 2.04 | M 2.12 | W 2.24 | R 2.97 | I 1.83 | V 1.83 | H 2 | S 1.98 | F 1.94 | A 2.27
F15: E 2.7 | D 2.78 | Y 1.71 | G 1.58 | T 1.32 | A 1.82 | W 1.55 | S 1.74
M2: P 2.23 | Q 1.77 | V 1.85 | R 1.9 | T 1.94 | D 1.58 | K 1.78 | F 1.73 | H 1.7 | E 2.08 | S 1.52 | G 1.46 | Y 1.99
I21: D 3.17 | H 3.26 | Q 1.61 | C 2.21 | T 1.05 | P 3.02 | N 2.81 | G 2.17 | E 4.75 | F 2.26 | V 2.18 | Y 1.95 | R 3.01

Variants of: B2
Experiment: as above
Conditions: c terminus: a fixed tail appended

Protein stability index: each site, then its substitutions
Q24: Y 1.53 | A 1.9 | F 3.46 | S 2.03 | G 2.41 | E 2.12 | L 2.19 | H 2 | P 1.91 | V 1.7 | T 1.65 | C 1.84 | M 1.24
R23: S 1.52 | W 2.46 | Y 1.83

From the supplement of paper PMC10567573
